Laboratory results published in article PMC6640723 (2019).

How the values were obtained:
[1] = target: gp140UG37 (ARP698, Polymun) (HIV-1 strain UG037); experiment: ELISA
[2] = target: recombinant gp41 (ARP680) (HIV-1); experiment: ELISA

B1: VHH 2E7 (VHH)
VHH: DVQLQESGGGLVQPGGSLRLSCAASGNIVSIDAAGWFRQAPGKQREPVATILTGGATNYADSVKGRFTISRDNAKNTVYLQMNSLKPEDTAVYYCYAPMIYYGGRYSDYWGQGTQVTVS
Q: For B1, which IC50 [1] is on record?
A: Its IC50 is 0.9 nM.

Q: And the IC50 [2]?
A: Its IC50 is 3.2 nM.
